The values below come from publication PMC4437705 (Nature, 2013).

Series [1] concerns the target T1, apo-FabA (E. coli fatty acid 3-hydroxyacyl-ACP dehydratase, unlabeled, not crosslinked) (E. coli, UniProt P0A6Q3 2-172).
T1 sequence: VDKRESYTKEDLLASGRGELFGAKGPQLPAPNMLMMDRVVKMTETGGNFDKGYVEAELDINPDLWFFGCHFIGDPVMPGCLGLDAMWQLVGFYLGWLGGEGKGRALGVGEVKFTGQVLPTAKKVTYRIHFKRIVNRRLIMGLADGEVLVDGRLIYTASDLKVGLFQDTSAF
The series is described as follows: NMR titration.

The series “crystal structure” deals with the molecule itself. The series is described as follows: crystal structure.

One may read the stoichiometry N as a count of units in the complex or per binding partner.

B1: holo-AcpP (E. coli acyl carrier protein with 4'-phosphopantetheine) (natural protein)
chain: STIEERVKKIIGEQLGVKQEEVTNNASFVEDLGADSLDTVELVMALEEEFDTEIPDEEAEKITTVQAAIDYINGHQA
modifications: 4'-phosphopantetheine (PPant) on S36
On to B1, for which the binding result in series [1] is “binds”.

B2: octanoyl-AcpP (E. coli acyl carrier protein with octanoyl-4'-phosphopantetheine) (natural protein)
chain: B1 chain
modifications: octanoyl chain on the PPant arm attached to S36
With B2, the binding result in series [1] is reported as “binds”.

B3: FabA (E. coli fatty acid 3-hydroxyacyl-ACP dehydratase) as in the crosslinked AcpP=FabA complex (enzyme)
chain: T1 sequence
modifications: H70 covalently connected through probe 1 to S36 of AcpP
As to B3, the “stoichiometry N” value in the series “crystal structure” is 2.
